Data taken from patent US20250034601A1, “HETERODIMERIC BENZALDEHYDE SYNTHASE, METHODS OF PRODUCING, AND USES THEREOF” (Purdue Research Foundation, priority 2021, published 2025).

Columns and labels:
[1] = Purified PhBS with short-chain fatty acyl-CoA substrates (GC-MS); assay type: biochemical; conditions: 1 mM fatty acyl-CoA, 28° C., 1 hour
Experimental: Given the peroxisomal localization of PhBS, it was also analyzed if purified PhBS could be involved in metabolism of short-chain fatty acyl-CoA esters. […] All reactions were carried out at 28° C. for 1 hour.

[2] = system: N. benthamiana leaves; assay: Reconstitution of benzaldehyde biosynthetic pathway in N. benthamiana leaves, benzylalcohol formation; assay type: in vivo, Nicotiana benthamiana; conditions: 150 mM Phe feeding for 24 hours, after Viscozyme treatment; means ± SE, n=5
From the text: In addition, the complete benzaldehyde β-oxidative biosynthetic pathway was reconstituted in N. benthamiana by expressing together with the PhBS four additional genes encoding phenylalanine ammonia lyase 1 (PhPAL1), PhCNL, PhCHD and PhKAT. Klempien et al. (2012), supra; Qualley et al., Completion of the core 0-oxidative pathway of benzoic acid biosynthesis in plants. Proceedings of the National Acad of Sciences of the U.S.A. 109: 16383-16388 (2012); Moerkercke et al., A plant thiolase involved in benzoic acid biosynthesis and volatile benzenoid production, The Plant J. 60: 292-302 (2009).
The coding sequences of PhPAL1, PhCNL, PhCHD, PhKAT, PhBSα (SEQ ID NO: 1) and PhBSβ (SEQ ID NO: 2) were PCR amplified with gene-specific primers (see Table 1 of FIG. 24) from petunia flower cDNAs and cloned into binary vector pCNHP using ClonExpress II One Step Cloning Kit (Vazyme Biotech Co., Piscataway, NJ). After sequence verification, plasmids were transformed into Agrobacterium tumefaciens strain GV3101. Single colonies for each construct were picked and cultured at 28° C. in 3 mL of LB medium supplied with 50 mg/L rifampicin, 50 mg/L gentamycin and 50 mg/L kanamycin to an OD600 of about 2.0. Bacterial cultures were pelleted, washed with a 10 mM MgCl2 solution containing 200 μM acetosyringone, and incubated in the same solution for additional 2 hours at room temperature. […]

[3] = Substrate specificity of purified BS with benzoyl-CoA and hydroxycinnamoyl-CoA analogs (GC-MS); assay type: biochemical; conditions: 1:1 ratio between α and β subunits, NADPH; cinnamoyl-, para-coumaroyl-, caffeoyl-, feruloyl-, sinapoyl-CoA versus benzoyl-CoA
From the text: The response of internal standard in each run was set as 100%.
To analyze substrate specificity of PhBS, CoA esters were enzymatically synthesized from cinnamic acid, para-coumaric acid, caffeic acid, ferulic acid and sinapic acid using purified recombinant petunia 4-coumarate:CoA ligase (Ph4CL1) purified using the protocols described herein (FIG. 11B; triangle indicates the position of the Ph4CL1 protein). […] The experiment was repeated at least six times with similar results.
To test whether AtBS is involved in the biosynthesis of other aromatic aldehydes, hydroxycinnamoyl-CoA thioesters were incubated with purified AtBS enzyme, and the corresponding aldehyde formation was analyzed. Briefly, GC-MS analysis was performed of the products formed by AtBS from different hydroxycinnamoyl-CoA substrates. […] Shown in FIG. 22 are the combined EICs of mass units 106 (benzaldehyde), 128 (internal standard), 131 (cinnamaldehyde), and 178 (coniferaldehyde).

B1: PhBS: heterodimeric Petunia hybrida benzaldehyde synthase of PhBSα (SEQ ID NO: 1) and PhBSβ (SEQ ID NO: 2) subunits, 1:1 ratio (protein, listed as Petunia hybrida)
alpha: MEKQTQARFLEPWRDLKGKVVMVTGASSGIGLDLCLDLAKAGCKIIAAARRVDRLKSLCNQINAAADDDDDNNRAVAVELDVSANGDAIEAAVKEAWGAFGRIDALVNNAGVRGTVHSPLELTEEECHNTFRTNLTGTWLVSKYVCKFMRDAKQGGSVINISSIAGLNRGQLPGGLAYVSSKGAVNMVTKVMALELGVDKIRVNSISPGLFKSEITQGLIQKEWLNNVAMRTIPLRTHGNSADPALTSVVRYLIHDSSEYVSGNLFIVDAGATLPGVPIFSSL
beta: MENSGKKVLLTSNGDDICNNIAYHLAQRGCQLVLMGNESQLKSVAEMIKQSLGGSAAVEVVGLDMEEDREAAFEEAVDKAWKIFGKLDALVNCYSYEGKMQDPLQLIEEEFKKIVKINFMAGWYLMKCISKKMRDDKSGGSIVFLTSIIGAERGIYQGAAAYGSCLGGIQQLVRLAAIELGKHQIRVNGISRGLHLQDEYPKAVGLERAEKMTKEAAPLNRWLDVKKDLASTVIYLISDDSRYMTGTSIFVDGAQSLVRPRMRSYM
- product formed from hexanoyl-CoA [1]: only trace amounts of hexanal were detected
- benzylalcohol produced in infiltrated leaves [2]: 327.9±14.3 nmol·g FW^−1
- substrate specificity (aldehyde formation from CoA esters) [3]: strict substrate selectivity for benzoyl-CoA
